According to patent publication US20110293610A1 (published 2011):

What was measured:
[1] = biological target: T1, biotinylated B Lymphocyte Stimulator, soluble form (human, UniProt Q9Y275 134-285, biotinylated with NHS-biotin, molar ratio 20:1 biotin:protein); test: phage scFv, receptor binding inhibition on IM9 cells
T1 construct: also called bio-B Lymphocyte Stimulator; free B Lymphocyte Stimulator
Experimental: All of the unique phage scFvs from panel 2 were assessed for their ability to inhibit B Lymphocyte Stimulator binding to its cognate receptor on IM9 cells. The biotinylation of B Lymphocyte Stimulator, maintenance of IM9 cells and receptor binding inhibition assay were performed as described in Example 3.

LIGHT = LIGHT (human, UniProt O43557 74-240, limits assumed); test: phage ELISA
TRAIL = biological target: T2, TRAIL (human, UniProt P50591 114-281); test: phage ELISA
T2 construct: also called TNF-related apoptosis inducing ligand

[2] = biological target: T3, B Lymphocyte Stimulator, soluble form (human) (human, UniProt Q9Y275 134-285, biotinylated with NHS-biotin where used as biotinylated B Lymphocyte Stimulator); test: phage ELISA
T3 construct: Coated on plastic, captured on streptavidin plates, amine-coupled to a CM5 chip or free in solution, depending on the assay; also called BLyS; immobilized B Lymphocyte Stimulator

TNF-beta = biological target: T4, TNF-beta (human, UniProt P01374 35-205); test: phage ELISA
T4 construct: also called TNFβ; Tumour Necrosis Factor-beta
T4 sequence (looked up): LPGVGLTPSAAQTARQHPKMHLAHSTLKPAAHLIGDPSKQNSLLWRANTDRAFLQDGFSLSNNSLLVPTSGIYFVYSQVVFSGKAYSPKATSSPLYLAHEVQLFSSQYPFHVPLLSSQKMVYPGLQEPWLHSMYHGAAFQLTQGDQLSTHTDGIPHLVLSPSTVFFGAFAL

TNF-alpha = biological target: T5, TNF-alpha (human, UniProt P01375 77-233); test: phage ELISA
T5 construct: also called TNFα; TNF-α
T5 sequence (P01375 77-233 limits assumed): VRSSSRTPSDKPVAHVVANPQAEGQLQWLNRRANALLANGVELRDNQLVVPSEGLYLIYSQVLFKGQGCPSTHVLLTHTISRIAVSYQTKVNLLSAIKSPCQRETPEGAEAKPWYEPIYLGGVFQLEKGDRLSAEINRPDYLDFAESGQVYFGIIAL

T2 sequence (P50591 114-281 limits assumed): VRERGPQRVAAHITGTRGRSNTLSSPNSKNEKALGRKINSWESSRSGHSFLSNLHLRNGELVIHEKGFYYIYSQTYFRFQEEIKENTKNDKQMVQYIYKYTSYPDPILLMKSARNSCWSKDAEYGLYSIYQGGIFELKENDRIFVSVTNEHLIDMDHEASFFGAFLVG
Chain of LIGHT (O43557 74-240 limits assumed): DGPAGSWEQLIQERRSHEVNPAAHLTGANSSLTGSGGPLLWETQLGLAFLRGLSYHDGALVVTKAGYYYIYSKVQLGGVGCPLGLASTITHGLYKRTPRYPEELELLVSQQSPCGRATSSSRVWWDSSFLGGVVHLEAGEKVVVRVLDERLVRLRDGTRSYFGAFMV

B1: I078D02 (scFv)
scFv: QVQLQQSGAEVKKPGASVKVSCKASGYTFTSYGISWVRQAPGQGLEWMGWISAYNGNTNYAQKLQGRVTMTTDTSTSTAYMELRSLRSDDTAVYYCARVYYDILTGYNLFFDYWGKGTMVTVSSGGGGSGGGGSGGGGSQSVLTQPASVSGSPGQSITISCTGTSSDVGGYNYVSWYQQHPGKAPKLMIYEGSKRPSGVSNRFSGSKSGNTASLTISGLQAEDEADYYCSSYTTRSTRVFGGGTKLTVLG
B1: binds [1].

B2: I078H08 (scFv)
scFv: QVQLVQSAAEVKKPGASVKVSCKASGYTFTSYGISWVRQAPGQGLEWMGWISAYNGNTNYAQKLQGRVTMTTDTSTSTAYMELRSLRSDDTAVYYCARVYYDILTGYNLFFDYWGRGTTVTVSSGGGGSGGGGSGGGGSQSVLTQPASVSGSPGQSITISCTGTSSDVGGYNYVSWYQQHPGKAPKLMIYEGSKRPSGVSNRFSGSKSGNTASLTISGLQAEDEADYYCSSYTTRSTRVFGGGTKLTVLG
B2: binds [1].

B3: I068C08 (scFv)
scFv: QVQLQQSGAEVKKPGSSVKVSCQASGGSFSREGISWVRQAPGHGLEWMGRIIPVLGVADYAQKFQGRVKISVDRLTSVAYMELTSLRFEDTAVYYCAREGMNDFINSHHYYTMDAWGQGTLVTVSSGGGGSGGGGSGGGGSAQAVLTQPSSVSGAPGQRVTISCTGSSSNIGAGYDVHWYQQLPGTAPKLLIYGNSNRPSGVPDRFSGSKSGTSASLAITGLQAEDEADYYCQSYDSSLSGSVFGGGTKLTVLG
B3: no binding (LIGHT); no binding (TRAIL); binds [2]. B3: no binding (TNF-beta); no binding (TNF-alpha).

B4: I068C08 (scFv)
scFv: QVQLQQSGAEVKKPGSSVKVSCQASGGSFSREGISWVRQAPGHGLEWMGRIIPVLGVADYAQKFQGRVKISVDRLTSVAYMELTSLRFEDTAVYYCAREGMNDFINSHHYYTMDAWGQGTLVTVSSGGGGSGGGGSGGGGSAQAVLTQPSSVSGAPGQRVTISCTGSSSNIGAGYDVHWYQQLPGTAPKLLIYGNSNRPSGVPDRFSGSKSGTSASLAITGLQAEDEADYYCQSYDSSLSGSVFGGGTKLTVLG
B4: binds [1].

B5: I068F03 (scFv)
scFv: EVQLVQSGADVKKPGASVKVSCKASHYPFTTYGVSWVRQAPGQGLEWMGWISNYNGHTRYAPKFQGRVTLTTDTLTNTAFMELKSLTSDDTAIYYCARAGNEYGHTERPADYWGKGTMVTVSSGGGGSGGGGSGGGGSAQAVLTQPSSVSGAPGQRVTISCTGSSSNIGAGYDVHWYQQLPGTTPKLLISRNNNRPPGVPDRFSGSKSGTSASLAITGLQAEDEADYYCQSYDTTLRGWVFGGGTKVTVLG
B5: no binding (LIGHT); no binding (TRAIL); binds [2]. B5: no binding (TNF-beta); no binding (TNF-alpha).

B6: I068F03 (scFv)
scFv: EVQLVQSGADVKKPGASVKVSCKASHYPFTTYGVSWVRQAPGQGLEWMGWISNYNGHTRYAPKFQGRVTLTTDTLTNTAFMELKSLTSDDTAIYYCARAGNEYGHTERPADYWGKGTMVTVSSGGGGSGGGGSGGGGSAQAVLTQPSSVSGAPGQRVTISCTGSSSNIGAGYDVHWYQQLPGTTPKLLISRNNNRPPGVPDRFSGSKSGTSASLAITGLQAEDEADYYCQSYDTTLRGWVFGGGTKVTVLG
B6: binds [1].

B7: I003C06 (scFv)
scFv: QVQLVQSGAEVKKPGSSVKVSCRASGGSFNHAISWVRQAPGRGLEWMGGILPMYGTANYAQKFQGRVTITADKLTNTVYMDLSRLRYEDTAVYYCARELGLSIVGATTGALDMWGKGTLVTVSSGGGGSGGGGSGGGGSALPVLTQPPSVSVAPGQTATLTCGGTNFGRQSVHWYQQKPGQAPVLAIYHDDVRPSGIPERLSGSKSGNTATLTISRVEAGDEAAYYCQVWDSGSDVVVFGGGTKLTVLG
B7: binds [1].

B8: I078D08 (scFv)
scFv: QVNLRESGGGLVQPGGSLRLSCAASGFTFSSYWMSWVRQAPGKGLEWVANIKQDGSEKYYVDSVKGRFTISRDNSKNTLYLQMNSLRAEDTAVYYCARDAQSYYDILTGYQSYAFDIWGQGTTVTVSSGGGGSGGGGSGGGGSSELTQDPAVSVALGQTVRITCQGDSLRSYYTNWFQQKPGQAPLLVVYAKNKRPSGIPDRFSGSSSGNTASLTITGAQAEDEADYYCHSRDSSGNHVLFGGGTKLTVLG
B8: binds [1].

B9: I026C04 (scFv)
scFv: QVQLVQSGAEVKKPGSSVKVSCRASGGSFNHAISWVRQAPGRGLEWMGGILPMYGTANYAQKFQGRVTITADKLTNTVYMDLSRLRYEDTAVYYCARELGLSIVGATTGALDMWGKGTLVTVSSGGGGSGGGGSGGGGSAQSVLTQPPSVSAAPGQKVTISCSGSSSNIGNNYVSWYQQIPGTAPKLLIYENNKRPSGIPDRFSGSKSGASATLDITGLQTGDEADYYCGTWHSSQVVFGGGTKLTVLG
B9: binds [1].

B10: I025B06 (scFv)
scFv: QVQLVQSGAEVKKPGSSVKVSCRASGGSFNHAISWVRQAPGRGLEWMGGILPMYGTANYAQKFQGRVTITADKLTNTVYMDLSRLRYEDTAVYYCARELGLSIVGATTGALDMWGKGTLVTVSSGGGGSGGGGSGGGGSAQSVLTQPPSVSAAPGQKVTISCSGSSSNIGNNYVSWYQQIPGTAPKLLIYENNKRPSGIPDRFSGSKSGASAALDITGLQTGDEADYYCGTWHSSQVVFGGGTKLTVLG
B10: binds [1].

B11: I025B09 (scFv)
scFv: QVHLVQSGAEVKKPGSSVKVSCRASGGSFNHAISWVRQAPGRGLEWMGGILPMYGTANYAQKFQGRVTITADKLTNTVYMDLSRLRYEDTAVYYCARELGLSIVGATTGALDMWGKGTLVTVSSGGGGSGGGGSGGGGSAQSVLTQPPSVSAAPGQKVTISCSGSSSNIGNNYVSWYQQIPGTAPKLLIYENNKRPSGIPDRFSGSKSGASATLDITGLQTGDEADYYCGTWHSSQVVFGGGTKLTVLG
B11: binds [1].

B12: I073F04 (scFv)
scFv: QVQLQQSGAEVKKPGSSVKVSCKASGGTFRSYAFSWVRQAPGQGLEWMGYIVPVFGTATYAQNFQGRVTITADELTTTAFMELSSLTSEDTAVYYCARSLATRPLGMDVWGRGTTVTVSSGGGGSGGGGSGGGGSQSVLTQPASVSGSPGQSITISCTGTSSDVGGYNYVSWYQQHPGKAPKLMIYEGSKRPSGVSNRFSGSKSGNTASLTISGLQAEDEADYYCSSYTTRSTRVFGGGTKLTVLG
B12: binds [1].

B13: I065D04 (scFv)
scFv: QVQLQESGPGLVKPSETLSLTCTVSGGSISSGYYWGWVRQPPGQGLEWIGSIYHSGSTYHNPSLKSRVTISMDTSKNQFSLNLNSVTAADTAVYYCARGKGYYDILTGYYRDNWFDPWGRGTLVTVSSGGGGSGGGGSGGGGSQSVLTQPASVSGSPGQSITISCTGTSSDVGGYNYVSWYQQHPGKAPKLMIYEGSKRPSGVSNRFSGSKSGNTASLTISGLQAEDEADYYCSSYTTRSTRVFGGGTKLTVLG
B13: no binding (LIGHT); no binding (TRAIL); binds [2]. B13: no binding (TNF-beta); no binding (TNF-alpha).

B14: I065D04 (scFv)
scFv: QVQLQESGPGLVKPSETLSLTCTVSGGSISSGYYWGWVRQPPGQGLEWIGSIYHSGSTYHNPSLKSRVTISMDTSKNQFSLNLNSVTAADTAVYYCARGKGYYDILTGYYRDNWFDPWGRGTLVTVSSGGGGSGGGGSGGGGSQSVLTQPASVSGSPGQSITISCTGTSSDVGGYNYVSWYQQHPGKAPKLMIYEGSKRPSGVSNRFSGSKSGNTASLTISGLQAEDEADYYCSSYTTRSTRVFGGGTKLTVLG
B14: binds [1].

B15: I071B03 (scFv)
scFv: QVQLQQSGAEVKKPGASVKVSCKASGYTFTKYTMHWVRQAPGQGPEWMGWINGGSGDTKYSRKFQGRVTITKDTSASAAYMELSSLGSEDTALYYCARATYDPLTGYSFDGFDIWGQGTMVTVSSGGGGSGGGGSGGGGSQSVLTQPASVSGSPGQSITISCTGTSSDVGGYNYVSWYQQHPGKAPKLMIYEGSKRPSGVSNRFSGSKSGNTASLTISGLQAEDEADYYCSSYTTRSTRVFGGGTKLTVLD
B15: binds [1].

B16: I075A02 (scFv)
scFv: QVQLVQSGAEVKKPGSSVKVSCRASGGSFNHAISWVRQAPGRGLEWMGGILPMYGTANYAQKFQGRVTITADKLTNTVYMDLSRLRYEDTAVYYCARELGLSIVGATTGALDMWGRGTLVTVSSGGGGSGGGGSGGGGSAQSVVTQPPSASGTPGQRVTVSCSGGRSNIGSNTVSWYQQLPGTAPKLLIYSNDERPSGVPDRFSGSNSGTSASLAISGLQSEDEADYYCAAWDDSLNGVAFGGGTKLTVLG
B16: binds [1].

B17: I069B07 (scFv)
scFv: QVQLVQSGAEVKKPGASVKVSCKASGYTFTSYGISWVRQAPGQGLEWMGWISAYNGNTNYAQKLQGRVTMTTDTSTSTAYMELRSLRSEDTAVYYCARMEYDILTGYYGGYFDYWGQGTMVTVSSGGGGSGGGGSGGGGSQSVLTQPASVSGSPGQSITISCTGTSSDVGGYNYVSWYQQHPGKAPKLMIYEGSKRPSGVSNRFSGSKSGNTASLTISGLQAEDEADYYCSSYTTRSTRVFGGGTKLTVLG
B17: no binding (LIGHT); no binding (TRAIL); binds [2]. B17: no binding (TNF-beta); no binding (TNF-alpha).
